Reference: patent US20240342207, “MODIFIED NUCLEIC ACID COMPOSITIONS AND ASSOCIATED METHODS FOR TREATMENT OF PHENYLKETONURIA” (BOARD OF REGENTS, THE UNIVERSITY OF TEXAS SYSTEM, published 2024)

Assays:
Experiment in all cases: EMSA; one of 13 of 17 binding mutants; affinity not decreased
Details in all cases: tags: His-tag, E. coli; stem-loop
[1] = biological target: T1, PAH P281L (Homo sapiens, UniProt P00439 P00439:1-452, P281L)
T1 sequence: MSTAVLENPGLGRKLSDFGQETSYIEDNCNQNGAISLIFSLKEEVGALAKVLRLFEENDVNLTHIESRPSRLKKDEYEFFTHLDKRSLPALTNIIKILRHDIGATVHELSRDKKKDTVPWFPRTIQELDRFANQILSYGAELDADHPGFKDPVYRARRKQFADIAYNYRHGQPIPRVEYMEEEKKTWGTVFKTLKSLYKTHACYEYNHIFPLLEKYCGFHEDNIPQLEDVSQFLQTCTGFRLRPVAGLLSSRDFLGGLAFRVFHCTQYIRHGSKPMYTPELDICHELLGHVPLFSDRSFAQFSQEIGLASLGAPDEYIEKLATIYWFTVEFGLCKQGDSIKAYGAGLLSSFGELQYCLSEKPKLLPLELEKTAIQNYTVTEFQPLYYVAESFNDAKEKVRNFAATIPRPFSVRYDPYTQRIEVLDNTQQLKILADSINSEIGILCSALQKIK

[2] = biological target: T2, PAH I283N (Homo sapiens, UniProt P00439 P00439:1-452, I283N)
T2 sequence: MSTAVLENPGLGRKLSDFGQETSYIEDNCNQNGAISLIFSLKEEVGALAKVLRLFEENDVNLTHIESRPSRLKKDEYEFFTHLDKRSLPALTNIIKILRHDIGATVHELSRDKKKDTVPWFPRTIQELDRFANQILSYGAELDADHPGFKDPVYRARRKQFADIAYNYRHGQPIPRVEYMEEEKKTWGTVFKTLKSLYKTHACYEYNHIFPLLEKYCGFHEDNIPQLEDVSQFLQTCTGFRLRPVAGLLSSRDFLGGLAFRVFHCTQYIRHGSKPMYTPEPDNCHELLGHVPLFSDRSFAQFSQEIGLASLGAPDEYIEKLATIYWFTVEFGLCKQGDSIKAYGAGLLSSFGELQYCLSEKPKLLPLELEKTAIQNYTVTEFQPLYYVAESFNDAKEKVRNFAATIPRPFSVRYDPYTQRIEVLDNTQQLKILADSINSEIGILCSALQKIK

[3] = biological target: T3, PAH A47V (Homo sapiens, UniProt P00439 P00439:1-452, A47V)
T3 sequence: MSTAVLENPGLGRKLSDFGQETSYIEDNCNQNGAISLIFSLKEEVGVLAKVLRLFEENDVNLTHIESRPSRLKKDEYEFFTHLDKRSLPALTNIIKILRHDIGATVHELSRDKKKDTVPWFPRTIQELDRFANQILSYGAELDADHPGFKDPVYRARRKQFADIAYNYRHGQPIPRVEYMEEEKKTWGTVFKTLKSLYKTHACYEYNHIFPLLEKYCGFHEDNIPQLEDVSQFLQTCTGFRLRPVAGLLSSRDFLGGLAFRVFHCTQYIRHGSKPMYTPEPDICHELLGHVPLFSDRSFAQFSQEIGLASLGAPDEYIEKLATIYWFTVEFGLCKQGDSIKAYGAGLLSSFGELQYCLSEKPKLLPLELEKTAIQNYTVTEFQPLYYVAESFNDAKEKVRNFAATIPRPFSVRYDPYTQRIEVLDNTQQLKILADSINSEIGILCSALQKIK

[4] = biological target: T4, PAH A300S (Homo sapiens, UniProt P00439 P00439:1-452, A300S)
T4 sequence: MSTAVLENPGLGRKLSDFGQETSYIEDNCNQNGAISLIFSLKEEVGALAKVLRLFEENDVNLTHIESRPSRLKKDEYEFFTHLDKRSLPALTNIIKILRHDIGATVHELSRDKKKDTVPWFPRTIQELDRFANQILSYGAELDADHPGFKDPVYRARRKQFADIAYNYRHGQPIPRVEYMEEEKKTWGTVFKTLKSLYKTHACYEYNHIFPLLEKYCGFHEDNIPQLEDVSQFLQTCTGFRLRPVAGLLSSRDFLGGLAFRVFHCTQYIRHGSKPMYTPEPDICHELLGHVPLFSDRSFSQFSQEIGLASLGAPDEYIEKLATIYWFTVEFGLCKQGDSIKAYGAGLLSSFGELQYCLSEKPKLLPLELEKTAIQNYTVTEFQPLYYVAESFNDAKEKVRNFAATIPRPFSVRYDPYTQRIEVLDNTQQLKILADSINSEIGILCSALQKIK

[5] = biological target: T5, PAH F39L (Homo sapiens, UniProt P00439 P00439:1-452, F39L)
T5 sequence: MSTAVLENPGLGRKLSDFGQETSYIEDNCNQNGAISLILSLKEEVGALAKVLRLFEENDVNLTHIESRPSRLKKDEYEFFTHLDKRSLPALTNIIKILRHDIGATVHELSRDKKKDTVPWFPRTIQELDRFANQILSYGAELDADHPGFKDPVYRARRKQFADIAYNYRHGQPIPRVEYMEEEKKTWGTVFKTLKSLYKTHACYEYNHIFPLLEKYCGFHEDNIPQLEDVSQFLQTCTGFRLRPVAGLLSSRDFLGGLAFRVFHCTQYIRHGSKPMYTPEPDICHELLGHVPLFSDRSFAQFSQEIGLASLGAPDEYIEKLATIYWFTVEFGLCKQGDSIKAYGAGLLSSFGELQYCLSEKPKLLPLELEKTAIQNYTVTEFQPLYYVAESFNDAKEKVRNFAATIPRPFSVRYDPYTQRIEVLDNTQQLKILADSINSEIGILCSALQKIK

Measured: binding result

CAAAAUGCAUAUGUAUCUUUG (ssRNA) [HULC 181-201 mimic]
binds: [1] | [2] | [3] | [4] | [5]
